According to patent publication US20090170194A1 (GOVERNORS OF THE UNIVERSITY OF ALBERTA, published 2009):
Positions count from the first letter of the chain named. Names may count otherwise.

Experiments:
[1] = target: the molecule itself; experiment: self-association (homodimer); gel filtration chromatography (FIG. 4)
Source text: (§1) FIG. 4: Characterization of mTFP1 by Gel Filtration Chromatography. Gel filtration chromatography elution profile with detection at either 450 nm or 550 nm. The upper profile is a co-injection of dTFP0.2 and mCherry (Shaner, 2004) (a red monomer), the middle profile is dTomato (Shaner, 2004) (a red dimer) and mTFP1, and the lower profile is mTFP1 alone. The small 450 nm peak at the dimer elution volume is due to the weak absorbance of dTomato at this wavelength.
(§2) The non-oligomeric structure of mTFP variants was determined by gel filtration chromatography on a HiLoad 16/60 Superdex 75 pg gel filtration column. Samples of the dimeric dTomato and the monomeric mCherry proteins (Shaner, 2004) were expressed and purified as described above and used as size standards. The AKTA basic liquid chromatography system (GE Healthcare) can monitor multiple wavelengths simultaneously. Purified TFP variants were mixed with either dTomato or mcherry and their respective elution profiles monitored separately at 450 nm and 550 nm, respectively.

[2] = target: the molecule itself; experiment: gel filtration chromatography (self-association)
Experimental: as §2

[3] = target: the molecule itself; experiment: gel filtration chromatography with dTomato (dimer) and mCherry (monomer) as size standards (self-association)
Source text: as §1, §2

B1: dTFP0.2 (other)
chain: MVSKGEETTMGVIKPDMKIKLKMEGNVNGHAFVIEGEGEGKPYDGTNTVNLEVKEGAPLPFSYDILSNAFQYGNRAFTKYPDDIANYFKQSFPEGYSWERTMTFEDKGIVKVKSDISMEEDSFIYEIRLKGKNFPPNGPVMQKKTLKWEPSTEILYVRDGVLVGDISHSLLLEGGGHYRCDFKTIYKAKKVVKLPDYHFVDHRIEILNHDKDYNKVTLYENAVARYSLLPPQAGMDELYK
notes: dTFP0.1 with D81N and S226P; Vector His tag probably present; also called dTFP0.20
binding result [1]: binds

B2: mTFP0.3 (other)
chain: B1 chain with S167K, S169K
notes: dTFP0.2 with S162K and S164K; reported as a monomer; Substitution positions follow the DsRed-consistent numbering; Vector His tag probably present
binding result [2]: no binding

B3: mTFP1 (other)
chain: MVSKGEETTMGVIKPDMKIKLKMEGNVNGHAFVIEGEGEGKPYDGTNTINLEVKEGAPLPFSYDILTTAFAYGNRAFTKYPDDIPNYFKQSFPEGYSWERTMTFEDKGIVKVKSDISMEEDSFIYEIHLKGENFPPNGPVMQKKTTGWDASTERMYVRDGVLKGDVKHKLLLEGGGHHRVDFKTIYRAKKAVKLPDYHFVDHRIEILNHDKDYNKVTVYESAVARNSTDGMDELYK
notes: Engineered monomeric teal fluorescent protein derived from Clavularia cFP484; Expressed from pBAD/HisB and purified on Ni-NTA; also called mTFP1.0
binding result [3]: no binding
